Reference: PMC4215875

Tests used:
FcRn = FcRn (UniProt P55899); test: SPR
[1] = target: alpha-HER2 untagged (trastuzumab) (UniProt P01857); conditions: pH 7.3; not stated (pH 7.3)
[2] = target: alpha-HER2-DM1 ADC (in-house T-DM1 analogue) none in sequence; heterogeneous lysine conjugation with SMCC-DM1 (DAR 3.4) (UniProt P01857); conditions: pH 7.3; not stated (pH 7.3)
[3] = target: alpha-HER2 CT tag (trastuzumab with aldehyde Tag G) (UniProt P01857); conditions: pH 7.3; not stated (pH 7.3)
alpha-HER2 CT ADC = alpha-HER2 CT ADC (UniProt P01857); conditions: pH 7.3; not stated (pH 7.3)
alpha-HER2 CH1 ADC = alpha-HER2 CH1 ADC (UniProt P01857); conditions: pH 7.3; not stated (pH 7.3)
[4] = target: alpha-HER2 LC tag (trastuzumab with light-chain aldehyde tag); conditions: pH 7.3; not stated (pH 7.3)
[5] = target: alpha-HER2 CH1 tag (trastuzumab with aldehyde Tag C) (UniProt P01857); conditions: pH 7.3; not stated (pH 7.3)
alpha-HER2 LC ADC = alpha-HER2 LC ADC (UniProt P01857); conditions: pH 7.3; not stated (pH 7.3)

| Substance | % Bound after 5 s at pH 7.3 (FcRn) [%] | Kd (FcRn) [nM] | also measured |
| --- | --- | --- | --- |
| α-HER2 LC ADC (LC-tagged trastuzumab conjugated to HIPS-Glu-PEG2-maytansine) (antibody) | 10.9 | 4.8 | – |
| α-HER2-DM1 ADC (trastuzumab conjugated through conventional lysine chemistry to SMCC-DM1) (antibody) | 14.9 | 5 | – |
| α-HER2 CH1 tag (trastuzumab with the aldehyde tag in the CH1 domain, Tag C) (antibody) | 9.9 | 5.2 | – |
| α-HER2 CT tag (trastuzumab with the aldehyde tag at the heavy chain C-terminus, Tag G) (antibody) | 9.9 | 5.8 | – |
| Neonatal Fc receptor (FcRn) | – | – | % Bound after 5 s [1]: 8.6 % bound; % Bound after 5 s [2]: 14.9 % bound; % Bound after 5 s [3]: 9.9 % bound; % Bound after 5 s (alpha-HER2 CT ADC): 12 % bound; % Bound after 5 s (alpha-HER2 CH1 ADC): 9.5 % bound; % Bound after 5 s [4]: 11 % bound; % Bound after 5 s [5]: 9.9 % bound; % Bound after 5 s (alpha-HER2 LC ADC): 10.9 % bound |
| α-HER2 CT ADC (CT-tagged trastuzumab conjugated to HIPS-Glu-PEG2-maytansine) (antibody) | 12 | 4.4 | – |
| α-HER2 CH1 ADC (CH1-tagged trastuzumab conjugated to HIPS-Glu-PEG2-maytansine) (antibody) | – | 4.8 | – |
| α-HER2 LC tag (trastuzumab with the aldehyde tag in the light chain) (antibody) | 11 | 4.7 | – |
| α-HER2 untagged (trastuzumab) (antibody) | – | 5.2 | – |
